Experimental data: article PMC3871700, “Unusual N-Prenylation in Diazepinomicin Biosynthesis: The Farnesylation of a Benzodiazepine Substrate Is Catalyzed by a New Member of the ABBA Prenyltransferase Superfamily” (PLoS ONE, 2013)

B1: Ssrg_00986 (Streptomyces griseoflavus Tu4000) (protein)
chain: MSGTSEADEICSAVTETAGRLGIAFSRDKVWPILSAYGDAFAHAMPLAFRMATGPQHAGDVDCRFITHPKDRNPYPLAVSKGLTPKTSHPVGTLLSEIEERFPIDGYGIDFGVVNGFTKVYAGFAPQDLQNASKLVEIPAMPRSLAGNFDFFVRHGLDDKVAFVAVDYLHRTVNVYFNDVPAACFESDGIRRMLRDLGLPGPSDRMLGIGGQAFGLYITLNWDSPAIERFCFGVTTTDLSSLPVSIEPQLEKFAHCVPYGGADRKFVYGVAAAPEGEYYKLETHYKWNPGTVAFI
notes: His8-tagged Ssrg_00986 (295 amino acids)
B2: DzmP (Micromonospora sp. RV115) (protein)
chain: MSGTPEVAELYSTIEESARQLDVPCSRDRVWPVLSAYGDAFAHPEAVVAFRVATALRHAGELDCRFRTHPDDRDPYASAIARGLTPRTDHPIGGLLAEVHRRCPVESHGIDFGVVGGFKKIYAAFAPDELQVASVLAGIPAMPRSLAANAGFFTRHGLDDRVGVLGFDYPARTVNVYFNDVPRECFEPETIRSTLRRTGMAEPSEQMLRLGAGAFGLYVTLGWDSPEIERICYAAATTDLTTLPVPVEPEIEKFVKSVPYGGGDRKFVYGVALTPKGEYYKLESHYKWKPGAVNFI
notes: His8-tagged DzmP (296 amino acids)

Assays:
Test in all cases: purified protein
purified protein [1] = substrate: Oc1ccc2c(O)cccc2c1; format: biochemical, Streptomyces griseoflavus; details: FPP as co-substrate; Mg2+ stimulates but is not required
purified protein [2] = substrate: CC(C)=CCC/C(C)=C/COP(=O)(O)OP(=O)(O)O; details: […],6-DHN as co-substrate; Mg2+ stimulates but is not required
purified protein [3] = substrate: CC(C)=CCC/C(C)=C/CC/C(C)=C/CO[P@@](=O)(O)OP(=O)(O)O; details: […],6-DHN as co-substrate; Mg2+ stimulates but is not required
purified protein [4] = substrate: Oc1ccc2c(O)cccc2c1; format: biochemical, Micromonospora sp. RV115; details: FPP as co-substrate; Mg2+ stimulates but is not required
purified protein [5] = substrate: O=C1Nc2ccccc2Nc2ccccc21; format: biochemical, Micromonospora sp. RV115; details: FPP as co-substrate; Mg2+ stimulates but is not required

Protein	K0.5 (purified protein [1])	Km (purified protein [2])	Km (purified protein [3])	K0.5 (purified protein [4])	Km (purified protein [5])
B1	96 ± 11 µM	45 µM	45 µM		
B2		4.9 ± 0.9 µM	20 µM	18 ± 1 µM	133 ± 30 µM
